These results are taken from article PMC12463560.

The target of this experiment is PEDV-S1 protein fused with an Fc region (PEDV-S1-Fc protein) (porcine epidemic diarrhea virus | human). The experiment in a line: SDS-PAGE under reducing and non-reducing conditions; purified proteins loaded with (+) or without (-) beta-mercaptoethanol, Coomassie stained; shows disulfide-linked dimers only.

Broadly, the stoichiometry N is the number of molecules, sites or subunits per partner or assembly. The substance “PEDV-S1 protein fused with an Fc region (PEDV-S1-Fc protein) (Fc fusion)” yielded a stoichiometry N of 2.
